Experimental data published in the nanobody polyreactivity screen of Harvey et al. (2022).

test: yeast display, Sf9 membrane polyspecificity reagent, FACS + sequencing; frameworks hold sequencing errors
How it was run: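 Galactose induction of a Saccharomyces cerevisiae BJ5465 synthetic nanobody display library ran 36–48 hours. The cells were then stained for 1 hour at 4 °C with 10% biotinylated, detergent-solubilized Sf9 membrane reagent, pulled down on streptavidin microbeads and FACS-sorted into low and high (top ~1%) gates on expression and reagent-binding fluorescence. Labels for polyreactivity follow the gate of origin.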

Sequence	polyreactivity (PSR sort gate)
QVQLVESGGGLVQAGGSLRLSCAASGRTSRVYAMGWYRQAPGTERELVAAITWRGGNTYYADSVKGRFTISRDHAKNTVYLQMNSMKPEDTAVYYCAADPWSYGSWHGDSWGQGTQVTVSS	high polyreactivity
QVQLVESGGGLVQAGGSLRLSCAASGRTSRYAMGWYRQAPGKERELVAAISRNGGTTSYADSVKGRFTISRDNAKNTVYLQMNSLKPEDTAVYYCNAYSAFVPPTRGYYWGQGTQVTVSS	high polyreactivity
QVQLVESGGGLVQAGGSLRLSCAASGRTSSIYTMGWYRQAPGKERELVAAINSGGRTYYADSVKGRFTISRDNAKNTVYLQMNSLKPEDTAVYYCAARRSTYYWGGVTYTYYWGQGTQVTVSS	high polyreactivity
QVQLVESGGGLVQAGGSLRLSCAASGRTSSSYAMGWSRQAPGKERELVASITSSGRTYYADSVKGRFTISRDNAKNTVYLQMNSLKPEDTAVYYCAAPFYRVRGWYARTPYGYWGQGTQVTVSS	high polyreactivity
QVQLVESGGGLVQAGGSLRLSCAASGRTSTRNAMGWYRQAPGKERELVAAITRSGGGTYYADSVKGRFTISRDNAKNTVYLQMNSLKPEDTAVYYCAADQRSPSDGYEYWGQGTQVTVSS	low polyreactivity
QVQLVESGGGLVQAGGSLRLSCAASGRTSVINAMGWYRQAPGKERELVATISRGGSTNYADSVKGRFTISRDNAKNTVYLQMNSLIPDDTAVYYCNADEQNESFIWSFTIIYDYWGQGTQVTVSS	low polyreactivity
QVQLVESGGGLVQAGGSLRLSCAASGRTSVIYAMGWYRKAPGKERELVASIRRGGSTSYADSVKGRFTISRDNAKNTVYLQMNSLKPEDTAVYYCAARKRSVYGTEYDYWGQGTQVTVSS	high polyreactivity
QVQLVESGGGLVQAGGSLRLSCAASGRTSVIYAMGWYRQAPGKERELVASIRRGGSTSYADSVKGRFTISRDNAKNTVYLQMNSLKPEDTAVYYCAARKRSVYGTEYDYWGQGTQVTVSS	high polyreactivity
QVQLVESGGGLVQAGGSLRLSCAASGRTSVWYTMGWYRQAPGKEREFVASITGSGTCYADSVKGRFTISRDNAKNTVYLQMNSLKPEDTAVYYCAAGGKYYTFGFRGGTYDYWGQGTQVTVSS	high polyreactivity
QVQLVESGGGLVQAGGSLRLSCAASGRTSVYNAMGWYRPAPGKERELVAAIRGGGGNTYYADSVKGRFTISRDNAKNTVYLQMNSLKPADTAVYYCAKGSVVYLLRGVKGHSMDYWGQGTQVTVSS	low polyreactivity
QVQLVESGGGLVQAGGSLRLSCAASGRTSVYNAMGWYRQAPGKERELVAAITYGGRTYYADSVKGRFTISRDNAKNTVYLQMNSLKPEDTAVYYCAAPFHPAYVGYDYWGQGTQVTVSS	low polyreactivity
QVQLVESGGGLVQAGGSLRLSCAASGRTSYGYAIGWYRQAPGKERELVAAITYGGGSTYYADSVKGRFTISRDNEKNTVYLQMNSLKPEDTAVYYCAADRTGSTLYTIRYYYWGQGTQVTVSS	low polyreactivity
QVQLVESGGGLVQAGGSLRLSCAASGRTSYSNAMGWYRQAPGKERELVAAISGSGVRTYYADSVKGRFTISRDNAKNTVYLQMNSLKPEDTAVYYCAAAGRYPALYGYWGQGTQVTVSS	high polyreactivity
QVQLVESGGGLVQAGGSLRLSCAASGRTSYTNAMGWYRQAPGKERELVAAINYSGGSTYYADSVKGRFTISRDNAKNTVYLQMNSLKPEDTAVSYCAAERYYWYTEMGYWGQGTQVTVSS	high polyreactivity
QVQLVESGGGLVQAGGSLRLSCAASGRTSYTNAMGWYRQAPGKERELVAAINYSGGSTYYADSVKGRFTISRDNAKNTVYLQMNSLKPEDTAVYYCAADWDWWYQEFDYWGQGTQVTVSS	high polyreactivity
QVQLVESGGGLVQAGGSLRLSCAASGRTYGFNVMGWYRQAPGKERELVAAISWSGGSTYYADSVKGRFTISRDNEKNTVYLQMNSLKPEDTAVYYCNKRYVHRYGYWGQGTQVTVSS	low polyreactivity
QVQLVESGGGLVQAGGSLRLSCAASGRTYGHDTMGWYRQAPGKERELVARISRTGSTKYADSVKGRFTISRDNAKNTVYLQMNCLTPEDTAVYYCARVQAGGYGERVYAYHFDYWGQGTQVTVSS	high polyreactivity
QVQLVESGGGLVQAGGSLRLSCAASGRTYGYAMGWYRQAPGKERELVARITWRGGSTSYADSVKGRFTISRDNAKNTVYLQMNSLKPEDTAVYYCAAGFYFPVYTYVRKRYYYWGQGTQVTVSS	high polyreactivity
QVQLVESGGGLVQAGGSLRLSCAASGRTYGYAMGWYRQAPGKERELVARITWRGGSTSYADSVKGRFTISRENAKNTVYLQMNSLKPEDTAVYYCAAGFNSSDWHYYYRGQGTQVTVSS	high polyreactivity
QVQLVESGGGLVQAGGSLRLSCAASGRTYIYNAMGWYRQAPGKERELVAAISFRGGSTYYADSVKGRFTISRDNAKNTVYLQMNSLKPEDTAVYYCNAVRFYRYGWGQGTQVTVSS	high polyreactivity
QVQLVESGGGLVQAGGSLRLSCAASGRTYLYYVMGWYIQAPGKEREVVAAISYSGGSTYYADSVKGRFTISRDNAKNTVYLQMNSLKPEDTAVYYCTAVPVVRAGHGYDSWGQGTQVTVSS	high polyreactivity

Sequence	polyreactivity (PSR sort gate)
QVQLVESGGGLVQAGGSLRLSCAASGRTYNTNAMGWYRQAPGKERELVAAISGGGSTYADSVKGRFTISRDNAKNTVYLQMNSLKPEDTAVYYCAAQNVWFYGFWRDYWGQGTQVTVSS	low polyreactivity
QVQLVESGGGLVQAGGSLRLSCAASGRTYPAYAMGWYRQAPGKERELVAAITYDGGTTYYADSVKVRFTISRDNAKNTVYLQMNSLKPEDTAVYYSAAVYDEDQYDYWGQGTQVTVSS	low polyreactivity
QVQLVESGGGLVQAGGSLRLSCAASGRTYPGNAMGWYRPAPGKERELVAAISWSGTRTYYADSVKGRFTISRDNAKNTVYLQMNSLKPEDTAVHFCNVVVKGAWDYYPYDYWGQGTQVTVSS	high polyreactivity
QVQLVESGGGLVQAGGSLRLSCAASGRTYRRNAMGWYRQAPGKERELVAAIRSDGSTYYADSVKGRFTISRDNAKNTVYLQMNRLKPEDTAVYYCNAVYVSSFTCHDYWGQGTQVTVSS	low polyreactivity
QVQLVESGGGLVQAGGSLRLSCAASGRTYRRYAMGWYRQAPGKERELVASISRTGGSTYYADAVKRRYTISRDNAKNTVYLQMNSLKPVDTAVYYCNAGPSVGWYNYWGQGTQVSVSS	high polyreactivity
QVQLVESGGGLVQAGGSLRLSCAASGRTYSYYAMGWYRQAPGKERQLVAAITTRTGSTYYADSVKGRFTISRDNAKNTVYLQMNSLKPEDTAVYYCAAEPRYLRSGKGFDYWGQGTQVTVSS	high polyreactivity
QVQLVESGGGLVQAGGSLRLSCAASGRTYTGYGMGWSRQAPGKERELVAAITWRGDRTYYADSVKGRFTISRDNAKNTVYLQMNSLKPEDTAVYYCNKLGRIQYDYWGQGTQVTVSS	high polyreactivity
QVQLVESGGGLVQAGGSLRLSCAASGRTYTYAMGWYRQAPGKERELVAGISRRGGNTYYADSVKGRFTISRDNAKNTVYLQMNSLKPEDTAVYYCAAVSFSASSYTYEYWGQGTQVTVSS	high polyreactivity
QVQLVESGGGLVQAGGSLRLSCAASGRTYVFYVMGWYRQAPGKERELVASISRSGGSTYYADSVKGRFTISRDNAKNTVYLQMNSLKPEDTAVYYCAADQLYYGERDYIWGYYYWGQGTQVTVSS	low polyreactivity
QVQLVESGGGLVQAGGSLRLSCAASGRTYVPNAMGWYRQAPGKEREFVAAITSRGGRTFYADSVKGRFTISRDNAKNTVYLQMNSLKPDDTAVYYCAAYRPGFVYGRLDYWGQGTQVTVSS	high polyreactivity
QVQLVESGGGLVQAGGSLRLSCAASGRTYVRDTMGWYRQAPGQERQLVAAITWSGGSTYYADSVKGRFTISRDNAKNTVYLQMNSLKPEDTAVYYCARRYSPHTSVSYYSWGQGNQVTVSS	high polyreactivity
QVQLVESGGGLVQAGGSLRLSCAASGRTYYWNAMGWYRQAPGKEREFVAAITNTAGSTYYADSVKGRFTISRDNAKNTVYLQMNSLKPEDTAVYYCAKSGNAGYRTYLRDYWGQGTQVTVSS	low polyreactivity
QVQLVESGGGLVQAGGSLRLSCAASGRTYYWYAMGWYRQAPGKERELVAAISSGGSTYYADSVKGRFTISRDNAKNTVSLQMISLKPEDTAVYYCAAYPQAYIADYDYWGQGTQVTVSS	low polyreactivity
QVQLVESGGGLVQAGGSLRLSCAASGRYAMGWYRQAPGKVRELVAAISDSDGSTYYADSVKGRFTISRDNAKTNVYLQMNSLKPEDTAVNYCDARSIVRFDSWGQGTQVTVSS	low polyreactivity
QVQLVESGGGLVQAGGSLRLSCAASGSIAGNAMGWYRQARGKEREMVAAITFRGSGTYYADSVKGRFTISRDNAKKTVYLQMNSLKPEDTAVYYCNAYRRGLSGYGYWGQGTQVTVSS	high polyreactivity
QVQLVESGGGLVQAGGSLRLSCAASGSICDVNAMGWYRQAPGKEREMVAAISDSGGSTYYADSVKGRFTISRDTAKNTVYLQMNSLNPEDTSVYYCNADWSWYNYYDFDYWGQGTQVTVSS	low polyreactivity
QVQLVESGGGLVQAGGSLRLSCAASGSICGGYAMGWYRQAPGKERELVAGITRSGGSTYYADSVKGRFTISRDNAKNTVYLQMNSLKPEDTAVYYCAVEIQFYRSPRKVRSYDYWGQGTQVTVSS	low polyreactivity
QVQLVESGGGLVQAGGSLRLSCAASGSICGLYDMRWYRQAPGKERELVASITGGGSTYADSVKGRFTISRDNAKNTVYLQMNSLKPEDTAVYSFAAKPYSFYGYKYDYWGQGTQVTVSS	low polyreactivity
QVQLVESGGGLVQAGGSLRLSCAASGSIFAANAMGWYRQAPGKERELVAAISRSGNTYYADSVKGRFTISRDNAKNTVYLQMNSLKPEDTAVYYCAARRDAYGRTYGYWGQGTQVTVSS	high polyreactivity
QVQLVESGGGLVQAGGSLRLSCAASGSIFAANAMGWYRQAPGKERELVADITKSGGSTYYADSVKGRFTISRDNAKNTVYLQMNSLKPEDTAVYYCNADDTQLESFAPGHGYDYWGQGTQVTVSS	low polyreactivity
